Assay results: article PMC9598941

How the values were obtained:
[1] = target: T1, CcpA (catabolite control protein A) (Staphylococcus aureus XN108 (clinical isolate)?) (UniProt P99175); assay: competition
T1 sequence: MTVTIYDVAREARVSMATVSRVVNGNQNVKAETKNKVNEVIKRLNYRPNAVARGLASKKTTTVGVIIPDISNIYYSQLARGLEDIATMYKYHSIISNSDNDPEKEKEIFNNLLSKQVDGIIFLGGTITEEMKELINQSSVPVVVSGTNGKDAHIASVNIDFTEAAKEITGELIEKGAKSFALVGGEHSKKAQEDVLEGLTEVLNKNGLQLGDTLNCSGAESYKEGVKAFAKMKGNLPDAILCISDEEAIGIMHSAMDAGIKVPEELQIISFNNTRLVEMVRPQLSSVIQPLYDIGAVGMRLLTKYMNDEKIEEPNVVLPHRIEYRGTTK

[2] = target: T1, CcpA (catabolite control protein A) (Staphylococcus aureus XN108 (clinical isolate)?); assay: EMSA

GGCGCTTCCTCCAAATATAATATATTTGTTTTTATTTATCTCTTTTTATAGCTAACACCCTTATTTAAGATGATAAATATCAACAACTTCATTTTATATTGAGAAAATATTAAAAATCAATAAAATATTAAAAGAAACTAAACTTACATTAAAAAATAATTAACAAATATTTAACATTTTAACCTAAGAA (double strand) [Psak]
binding [1]: binds
binding [2]: binds
